# Laboratory results as given in the DeepSol protein solubility set.
# Test: soluble on expression in E. coli; label from the status in PepcDB or PDB records
row,Sequence,soluble on expression in E. coli
1,FVSFKHKYKVTSINEIAKDTFEITGTSLKNELKYKAGQFAFIKIPEKKSFFPSHPFTMSNSNKSNEIQFSIKVLGDHTKALKENLKVGDTLSVSGPHGKFNYENGLKHQIWIAGGIGITPFRSFWQAELPSDYTVDLFYTYNNENEGAYINELNSINKNSNLNIHSIDSSKNGFLGLEDLEKHIDKNLEYSVFFCGPKPMREKLRRDFEKVNFKIKDMNYEHFHF,not soluble
2,MLIDTDFFLSNRSDSLVLDVRSPEEYRRGHIPGAESFPLFSDAERAEVGTLYVRHSRQAAVERGLEFVGPRMAEMVREARSLAAGRDIILYCWRGGMRSESVAWLLSVAGLRIRRLRGGYKAYRRHFPDILKLYPWRFIVLGGYTGSGKTPILNELTQMGEQVIDLEGLAHHKGSAFGALGQEQQPTTEHFMNLLHDALSACDPNRPIWVESESKTIGRVFLPDDFYKVMRQAPLIELSVPRPVRIAHIAKEYGVYDAEALANSFEHIARRMGGAATTQAITALKEGRLEEAVSLALDYYDKAYAHSLAEFRESSSARLAVETDTPHETAIKLLELSHIKGLQS,not soluble
3,MAMPEKSSDVKPTEECGSFPEIIELNVGGQVYITRYPTLISIPGSRLWEMFSVKNPCSLIQDNKGRFFIDRDGFLFRYVLDYMRDMQVVLPDHFPECGRLHREAEYFKLPELAKMLAPKMNKLNSIGNDSCPIDLEELSPSIDTTFNFSSTNSIHISGPDNPMVLRAAPGSELKKAGFITIGYRGSYTLGRDSQADAKFRRVARIMVCGKISLAKEVFGDTLNESRDPDRPPERYTSRYYLKFTFLEQAFDKLADAGFHMVACNSTGTCTVTHDQTDDRIWTSYTEYVFYRE,soluble
4,MKKEPLFVALSNQKGGVGKSTLTVLLASYFHYHKAKNVLVVDCDYPQHSMMTLREWDIKNVEKTPRLQSLLVEQFGDTGRKAYNILASMPEQAKETAYGFIDRSDTEYDLVLLDLPGTVNTTGVFQSIINMDYVFTPITQERMVMQSSMSFVLSIREYLLHHKGVPLRDIHMFWNKMDKRVSRDLYDAYMEIIRSLGLPVLNTVLPAAERYKKDVGLNGQIFRSTLFPPSAAALKGSNFDLLAAEMETILGL,not soluble
5,MGSDKIHHHHHHMKRPPKKPATDRSFVVALSRGLEVLRAFGPNDGLLGNQELAARTKLPKPTISRLTYTLTKLGYLTQVPRFEKYQLAPAAMSLGYAALANLGVRHLSQPYRDELMQQTGGAVAVGARDRISMIYVGQARSSLTVGVQLDVGSRIPIATTAMGRAYLCALQSEERAVLMKEMREYYGSRWPRIKEGIERSEEMVAKHGFAISVGEWQDDVHAAGVALTLNDGTGPYAFNCGAPAFRFTEERLINDIGPRLVAMVRKIEAALGGVAAPQPRKSDNKRTKGGKVARVVEGIR,not soluble
6,MGSDKIHHHHHHMNKTCERTSGDCTGESKARAASDRVTPCFTPGTLIATPRGERLVENLQVGDRVITRDNGIQEIRWFGHNAMGPQDLSHASHLQPILIRQGALGNGLPERDMMVSPNHRVLVANDKTALYFEDREVLVAAKHLTGLTGIDAIVTTAVTYIHFMFNQHEVVLSDGAWTESFQPVDQSLRGLDNAQRNEIFELFPELRTKEGQKAYPSARRELKEREARMLLH,not soluble
7,MGSDKIHHHHHHMASIKDVAKLAGVSIATVSRVINGYNNVSEETRKKVIDAIRKLNYHPVYAVKGAVLKRTIGVLVPNFGGFHYNEILTGIEKEAIKRDFTLMISTTLHRTSVELERLEVFFAKRVDGIIVCSSKKDEEQLERLIKSAIPVVVVDREEPEIRLDNVGIDNYAAGRMCAKYLLEKGHRKVLLLKGRKDIYSFSDRERGFIDYSTRHGIDVKVTPCGYFAEHGYHAVERYLKKHGRDFTAIFAINDLSAFGALKALHDLGVLVPDEVSVMGFDDDPISSYTIPPLTTVRQPREEMGRVAFEILYERLSGKKGVARRVVLPVEIVERESVKQL,not soluble
8,MDVADSTSETPPVFDHDNLALAAQTNLLQFYLTHLASTLVPPMKLDMRDSMTPSFSQTESPNSETDDSTSAANKVLFSILGTPTTDSTSNAVSKSSSKLCSVCGDKSTGLHYGAATCEGCKGFFKRSVQNKKVYHCSQDNCCEIDKQNRNRCQSCRFRKCISKGMLTEAVREDRMPGGRNGNSIYSNYKQRRSIIRKTKDYVEEQERRPFQSLPSGKKLIKELVEMDCLDRLINLKGLRINPSANCDIAPACKRLTRIGDEIVEQLVEWTKTLPFFDELPVEAHTHLLTQRWAELVLLSAGYYACSVFTPDSPDTTEMIDETDEISFTNPQVNLRLLQNRLSLVLGKEIPLEHVAKEAGPLVTRFTTLLHSFSNLKVSPEAYVCIKAITLLHLSADSTLDRSIIDKVNTLQDHFVKTLQIHLHQPGEDAQTTSLAQILDWLPDLRNASSVLLHSKMFYVPFLLCKNPRRLVFDE,not soluble
9,MAQAEEINVATVNNGDMIIMQKLSSAWEKETGNKINWIVLEENVLRERVTTDIATNGGQFDIMTIGGYEAPIWGKQGWLAPVDDLGDDYDYADLLDPIKKGLTVDGKLYAVPFYTESSFTLYRKDLFDAAGLKMPDNPTYDQIKDFAAKLTDKSKQQYGICLRGKPGWGENMAFLGTMINTYGGRWFDMDWKPQLTSAPWKKAIADYVALMTSYGPPGAAANGFNENQTLFSSGRCAMWIDATSAAGRVYDPKQSQVADKTGFTRAPVEVTPNGSSWSWSWNLAIPNSTKKLETAKSFVKWATSKAYVKTVGESEGWVAVPPGTRKSTYELPEYKKAAPFADTVLKAIMSADPSKPTKDPVPYTGVQFVAIPEFQSIGTVVGQQIAAALSGQQTVDAALEGAQKQVERDMTRAGYIK,not soluble
10,KQEVSGQVIYLNRGKSFFAFIKEYLEKETGYKKGVKWNRIALDEVEIITSEMSQARKENIKEAFLDGAVKIIIGTATIREGIDLQRKGTVIYNCYPDWNPTDIRQLEGRIWRQGNE,not soluble
11,MSLYIQNLELTSYRNYDHAELQFENKVNVIIGENAQGKTNLMEAIYVLSMAKSHRTSNDKELIRWDKDYAKIEGRVMKQNGAIPMQLVISKKGKKGKVNHIEQQKLSQYVGALNTIMFAPEDLNLVKGSPQVRRRFLDMEIGQVSPVYLHDLSLYQKILSQRNHFLKQLQTRKQTDRTMLDVLTDQLVEVAAKVVVKRLQFTAQLEKWAQPIHAGISRGLEELTLKYHTALDVSDPLDLSKIGDSYQEAFSKLREKEIERGVTLSGPHRDDVLFYVNGRDVQTYGSQGQQRTTALSLKLAEIDLIHEEIGEYPILLLDDVLSELDDYRQSHLLHTIQGRVQTFVTTTSVDGIDHETLRQAGMFRVQNGALVKEGGSHHHHHH,soluble
12,MGSDKIHHHHHHMARSHRLFELMQALRRHRRTVSGASLAQELGVSLRTIRRDVATLQGMGADIDGEPGLGYILKPGFLLPPLSFTEEELQALMIGAQWVSRQTDDKFAFAVRNALAKISAVLPVEMRPTLEDETFYISKPLSVSTTIDLSEIRRALRDQCKLSITLAIEHAPKDAQIIWPIMLGFIEARRHLAAWCEGDSQYRVIDMDDIADAHVLTERYTRNRRQLIKEWRALEVLPCNVRGETC,not soluble
13,MITTPNISLTPTVAPPVDFPIIGNCDFQAQLWHLMSLHLQMQKSSAASTSSSSSSSTSSENLKKSPSSVQNTSVFSIDNILNSQKVPKLELENDEDVSSSPSPTCSTTGYTLDSLQNLDRRSLNKKGPSSHNRCVCDKCGKSYATTSNLSRHKQTHRALDSPHAKQCPHCDRVYVSMPALSMHILTHNASHECNVCGKRFSRLWLLQGHLRSHTGLRPFSCAHCGKSFADRSNLRAHMLTHTGDKRFECDKCGRRFALRAYLNRHLETCK,not soluble
14,EDHEGRHMMAVLPANNKISLSRLNDEFNATFHLVKERMVYRLFTDCEHGAIPPIGSPYHMSTVCDERLANLEHVYLEAGDHETLIKLDRKAFKDLMNDCKYLRFSSEVLH,not soluble
15,MRDAQRPDLSTTFTVLLAGGRGSRLHELTSRECKPALPFAGPRRIVDFTLANAARSGLTRMIVATQYRPETLAHHLESRWASRFAGGSLRLREGTAVTGSPQGYGGTAAAVAANLAELQSEGVRELVVLAADHVYEMDYADMVAAHRASGASATVAVDTVPTDRASEFGVVRTSEGGRIESFLEKPAVVPADPAIPGRAQVSMGIYVFDLDWLASVLRIIPGATQDFGHDILPLAVALGEAHAYRVPGDNFYWRDVGTLDAYRLAQLEFQTGEAPCALPPRIAASEHEMKAATGELIQFAFRMQTGGIALHSPRLGGDLPGRWTMLDESVLLPGARVAPGVRLTRTIVAPGTSVPAGLVIGEDPDEDARWFRRTEEGTVLVTTPMLARRAADRGRLVAPFADSRMGRSALEHHHHHH,not soluble
16,MTLELLQAQAQNCTACRLMEGRTRVVFGEGNPDAKLMIVGEGPGEEEDKTGRPFVGKAGQLLNRILEAAGIPREEVYITNIVKCRPPQNRAPLPDEAKICTDKWLLKQIELIAPQIIVPLGAVAAEFFLGEKVSITKVRGKWYEWHGIKVFPMFHPAYLLRNPSRAPGSPKHLTWLDIQEVKRALDALPPKERRPVKAVSQEPLF,soluble
17,MGSDKIHHHHHHMAQEALCRKRHEGFNGSMVGVSLADLIQLKGTNRFSGCISVEFGGRCGVIFFQDGEIVHAEKGSCEGEEALQRIMRWPGGRFTAYPHLATDRHSIRKNRQHLLLDAHRAMDERHRHVDPKGERAEQTPLRERIRAIGMVSDAITLDFDGVPTDEKSPSADRLAAGACFLARLADRIGSRLGTGSPTSMVLEGTREHLFIYTGKHHLLAVAAGADHQPPMVEEAIRRAVQTA,not soluble
18,MDPSQQTPQETVVAPVAPLLEDQLELDMKHCFENLIVIDVGANLTNKKYSRDLDSVVQRARDAGVQKLMVHGTSVKSSKEALRLSRIYPDIIYSTAGIHPHDSKSIVEEPATWFDLEHIAQAQECVAIGPCGLDYQRDFSEPDAQKQIFAKQLHLAIRLNKPLLIHERSAQLDLLEILDKFENLPPVIIRGFMGTAEEALKYLDRRFYISLTGYLCKDKSDTGVRRLLEDGTLPLDRLLVETDAPFMYPNTRASKLPQHVKTGITERSLLYLHRYCTFQRNEPCSLPAIVEMIAAFMKKSPDEVALATAFNALKLFGLSLEHHHHHH,soluble
19,MGSDKIHHHHHHMARYRVHVNDPLDKEATQLLMNKEELEVTSEHLEKDELMKIIPEVDVLVVRSATKVTADIIEAGKNLKIIARAGIGLDNIDVQKAKEKGIKVLNTPGASAPSVAELAMGLMLACARHIARATVSLKEGKWEKKALKGKELLGKTLGLIGFGNIGQEVAKRALAFGMKIIAYDPAKPETDLPVEYVDLDTLFKESDFISLHVPLTESTRHIINRESIAKMKDGVIIVNTARGGTIDEEALYEEVVSGKVYAAGLDVFEVEPPTDEIRRKLLSLDNVVATPHIGASTAEAQRRVGIELVEKIFKELGI,not soluble
20,MIDEWPVPTAAAAVIGPSGVLATHGDDAKPFALASVTKLLVARAAQVAIEEGVVELDTPAGPDGSTVRHLLAHTSGVAMNSADTVAQVGQRRVYSNFGFGLLAHAIEDAAEIEFGRYLTEAVFEPLGMSTSKLLGGADAAGFGVTSTVSDLARFAGDLLRPALVSQQMHDEATSVQFPGVNGVLPGFGSQRPNDWGLGFEIRDGKTPHWTGSSNSPRTFGHFGQSGTFLWVDPVADLALLVLTDRDFGDWTYPLWPAISDGVLREIGTHLEHHHHHH,not soluble
21,MTTASTSQVRQNYDQDSEAAINRQINLELYASYVYLSMSYYFDRDDVALKNFAKYFLHQSHEERCHAEKLMKLQNQRGGRIFLQDIQKPDRDDWESGLNAMEAALQLEKNVNQSLLELHKLATDKNDPHLSDFIETHYLNCQVCAIKCLGDHVTNLRKMGAPESGLAEYLFDKHTLGDSDNES,soluble
